Data: patent publication US20170283834A1, “Processes for Producing A Fermentation Product Using A Fermenting Organism” (Novozymes A/S, priority 2014, published 2017)
Changes are numbered by the printed parent chain. In names and notes the source's numbering stands.

B1: JTP091: protease variant of SEQ ID NO: 3: D79L/S87P/A112P/T124V/D142L (protein, listed as Thermoascus aurantiacus)
chain: MRLVASLTALVALSVPVFPAAVNVKRASSYLEITLSQVSNTLIKAVVQNTGSDELSFVHLNFFKDPAPVKKVSVYRDGSEVQFEGILSRYKSTGLSRDAFTYLAPGESVEDVFDIASTYDLTSGGPVTIRTEGVVPYATANSTDIAGYISYSSNVLTIDVDGAAAATVSKAITPLDRRTRISSCSGSRQSALTTALRNAASLANAAADAAQSGSASKFSEYFKTTSSSTRQTVAARLRAVAREASSSSSGATTYYCLDPYGYCSPNVLAYTLPSYNIIANCDIFYTYLPPLTSTCHAQDQAVTALHEFTHAPGVYSPGTLDLAYGYQAAMGLSSSQAVMNADTYALYANAIYLGC
B2: JTP117: protease variant of SEQ ID NO: 3: D79L/Y82F/S87P/A112P/T124V/D142L (protein, listed as Thermoascus aurantiacus)
chain: B1 chain with Y260F
B3: JTP127: protease variant of SEQ ID NO: 3: D79L/S87P/A112P/T124V/A126V/D142L (protein, listed as Thermoascus aurantiacus)
chain: B1 chain with A304V
B4: JTP116: protease variant of SEQ ID NO: 3: D79L/Y82F/S87P/A112P/T124V/D142L (protein, listed as Thermoascus aurantiacus)
chain: B1 chain with Y260F
B5: JTP082: protease variant of SEQ ID NO: 3: ΔS5/D79L/S87P/A112P/D142L (protein, listed as Thermoascus aurantiacus)
chain: MRLVASLTALVALSVPVFPAAVNVKRASSYLEITLSQVSNTLIKAVVQNTGSDELSFVHLNFFKDPAPVKKVSVYRDGSEVQFEGILSRYKSTGLSRDAFTYLAPGESVEDVFDIASTYDLTSGGPVTIRTEGVVPYATANSTDIAGYISYSSNVLTIDVDGAAAATVSKAITPLDRRTRISCSGSRQSALTTALRNAASLANAAADAAQSGSASKFSEYFKTTSSSTRQTVAARLRAVAREASSSSSGATTYYCLDPYGYCSPNVLAYTLPSYNIIANCDIFYTYLPPLTSTCHAQDQATTALHEFTHAPGVYSPGTLDLAYGYQAAMGLSSSQAVMNADTYALYANAIYLGC
B6: Pfu S: commercial Pyrococcus furiosus protease purchased from Takara Bio Inc, (Japan); SEQ ID NO: 13 (protein, listed as Pyrococcus furiosus)
chain: AELEGLDESAAQVMATYVWNLGYDGSGITIGIIDTGIDASHPDLQGKVIGWVDFVNGRSYPYDDHGHGTHVASIAAGTGAASNGKYKGMAPGAKLAGIKVLGADGSGSISTIIKGVEWAVDNKDKYGIKVINLSLGSSQSSDGTDALSQAVNAAWDAGLVVVVAAGNSGPNKYTIGSPAAASKVITVGAVDKYDVITSFSSRGPTADGRLKPEVVAPGNWIIAARASGTSMGQPINDYYTAAPGTSMATPHVAGIAALLLQAHPSWTPDKVKTALIETADIVKPDEIADIAYGAGRVNAYKAINYDNYAKLVFTGYVANKGSQTHQFVISGASFVTATLYWDNANSDLDLYLYDPNGNQVDYSYTAYYGFEKVGYYNPTDGTWTIKVVSYSGSANYQVDVVSDGSLSQPGSS
modifications: mat_peptide (1)..(412) Pyrococcus furiosus protease (Pfu)

Assays:
Assay type in all cases: biochemical
zein [1] = test: Relative activity assay of protease variants (zein micro titer plate); settings: Table 4
Method in brief: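 Relative activity is the ratio of zein clearance (A630 turbidity) at a higher versus lower temperature, e.g. 60/65 °C or 70/80 °C. Supernatants from 3-day yeast cultures applied to 0.05-0.1% zein agar in 20 mM sodium acetate pH 4.5 with zinc, incubated at least 4 h.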

azo-casein = test: Remaining activity assay of protease variants (azo-casein); settings: pH 4.5, 4° C. as reference; for Remaining activity 80° C.: 10 min at 80° C.
Method: Yeast clones on SC-glucose were inoculated to a well of a 96-well micro titre plate and cultivated at 28° C. for 3 days. Protease activity was measured at 65° C. using azo-casein (Megazyme) after incubating the culture supernatant in 20 mM sodium acetate buffer, pH 4.5, for 10 min at a certain temperature (80° C. or 84° C. with 4° C. as a reference) to determine the remaining activity. The clones with higher remaining activity than the parental variant were selected and the sequence was determined.
20 microL of samples were mixed with 150 microL of substrate solution (4 ml of 12.5% azo-casein in ethanol in 96 ml of 20 mM sodium acetate, pH 4.5, containing 0.01% triton-100 and 0.25 mM ZnSO4) and incubated for 4 hours or longer.
After adding 20 microL/well of 100% trichloroacetic acid (TCA) solution, the plate was centrifuge and 100 microL of supernatants were pipette out to measure A440.

zein [2] = test: Thermostability of Protease Pfu (Relative Activity, methods of Example 2); settings: pH 4.5
Method: Yeast clones on SC-glucose were inoculated to a well of a 96-well micro titre plate containing YPD+Zn medium and cultivated at 28° C. for 3 days. The culture supernatants were applied to a 96-well zein micro titer plate and incubated at at least 2 temperatures (ex. 60° C. and 65° C., 70° C. and 75° C., 70° C. and 80° C.) for more than 4 hours or overnight. The turbidity of zein in the plate was measured as A630 and the relative activity (higher/lower temperatures) was determined as an indicator of thermoactivity improvement. The clones with higher relative activity than the parental variant were selected and the sequence was determined.
The thermostability of the Pyrococcus furiosus protease (Pfu S) purchased from Takara Bio Inc, (Japan) was tested using the same methods as in Example 2.

| Molecule | Relative activity 75° C./65° C. (zein [1]) | Remaining activity 80° C. (azo-casein) | other results |
| --- | --- | --- | --- |
| B1 | 154% | 43% | – |
| B2 | – | 94% | – |
| B3 | – | 53% | – |
| B4 | – | 59% | – |
| B5 | 129% | – | Remaining activity 84° C. (azo-casein; 10 min at 84° C.): 53% |
| B6 | – | – | thermostability (Relative Activity) 80° C./70° C. (zein [2]): 110%; thermostability (Relative Activity) 90° C./70° C. (zein [2]): 103% |
